Results as given in publication PMC11417369, “DNA sequence and chromatin differentiate sequence-specific transcription factor binding in the human malaria parasite Plasmodium falciparum”.

T1: AP2-LT D1 (Plasmodium falciparum, UniProt Q8IAM1 2520-2577)
T1 sequence: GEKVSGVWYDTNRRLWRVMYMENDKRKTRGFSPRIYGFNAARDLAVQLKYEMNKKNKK

B1: CACACA_negctrl_site1402 (dsDNA)
DNA 1: TTATTATTCTTAAGGATATAACAAAAAAGAAAAATT
DNA 2: AATTTTTCTTTTTTGTTATATCCTTAAGAATAATAA
B2: CACACA_negctrl_site982 (dsDNA)
DNA 1: ATTTTTTTTTTTTTTTTTTTTTTTTTTGAATTCACA
DNA 2: TGTGAATTCAAAAAAAAAAAAAAAAAAAAAAAAAAT
B3: CACACA_negctrl_site651 (dsDNA)
DNA 1: TTTGGAAAGCGTGATTTTTGACAAACACAAAAAAAA
DNA 2: TTTTTTTTGTGTTTGTCAAAAATCACGCTTTCCAAA
B4: CACACA_negctrl_site1736 (dsDNA)
DNA 1: ATTGAAAATTATTTACCTTCTTTGAAAGAACAAATG
DNA 2: CATTTGTTCTTTCAAAGAAGGTAAATAATTTTCAAT
B5: CACACA_negctrl_site153 (dsDNA)
DNA 1: CTTGGTAGTTTTTTCTTATAATCTAATTATTAATAA
DNA 2: TTATTAATAATTAGATTATAAGAAAAAACTACCAAG
B6: CACACA_negctrl_site1333 (dsDNA)
DNA 1: AATTAAGTTAAACATTAAAAAAAACAAAAAATTAAA
DNA 2: TTTAATTTTTTGTTTTTTTTAATGTTTAACTTAATT
B7: CACACA_negctrl_site731 (dsDNA)
DNA 1: TCTAAACAAATTAATAAAATAAGTATTCAAAATTAT
DNA 2: ATAATTTTGAATACTTATTTTATTAATTTGTTTAGA
B8: CACACA_negctrl_site283 (dsDNA)
DNA 1: ACATTCTGATGGTGATTATTAATTATTACAAAAATT
DNA 2: AATTTTTGTAATAATTAATAATCACCATCAGAATGT
B9: CACACA_negctrl_site1698 (dsDNA)
DNA 1: TTATAATAAAAAAATTCCTAAGTCCGTATATATTAT
DNA 2: ATAATATATACGGACTTAGGAATTTTTTTATTATAA
B10: CACACA_negctrl_site918 (dsDNA)
DNA 1: TTTTTTTTTTCTTTTTTTCTCATGAAATTCTAAATG
DNA 2: CATTTAGAATTTCATGAGAAAAAAAGAAAAAAAAAA
B11: CACACA_negctrl_site1262 (dsDNA)
DNA 1: ATATAAAGAAATTAATTTTTCAACAATAAAAATATA
DNA 2: TATATTTTTATTGTTGAAAAATTAATTTCTTTATAT
B12: CACACA_negctrl_site801 (dsDNA)
DNA 1: GATTTATATATATAAAATAATTGAATATTTTCTTTT
DNA 2: AAAAGAAAATATTCAATTATTTTATATATATAAATC
B13: CACACA_negctrl_site1633 (dsDNA)
DNA 1: AAAAATTAAAATATAACTAATTAATTTGTATTCATT
DNA 2: AATGAATACAAATTAATTAGTTATATTTTAATTTTT
B14: CACACA_negctrl_site1335 (dsDNA)
DNA 1: TAAAATTTTAACAAAAAAAAAAAAAAAAAAAGAAAA
DNA 2: TTTTCTTTTTTTTTTTTTTTTTTTGTTAAAATTTTA
B15: CACACA_negctrl_site1036 (dsDNA)
DNA 1: ATATTGTATTATCTTTATGTACCAAAAAAAAAAAAA
DNA 2: TTTTTTTTTTTTTGGTACATAAAGATAATACAATAT
B16: CACACA_negctrl_site667 (dsDNA)
DNA 1: TTATATATAAACATAAAAAGAAATATATTATGTATA
DNA 2: TATACATAATATATTTCTTTTTATGTTTATATATAA
B17: CACACA_negctrl_site362 (dsDNA)
DNA 1: TTATTTTTTCTTTTTTTTCTTACCACAAAAATGGAT
DNA 2: ATCCATTTTTGTGGTAAGAAAAAAAAGAAAAAATAA
B18: CACACA_negctrl_site1347 (dsDNA)
DNA 1: ATTTTTTTTTTTTTTTTTTTTTTTTTTTAATCTGGA
DNA 2: TCCAGATTAAAAAAAAAAAAAAAAAAAAAAAAAAAT
B19: CACACA_negctrl_site500 (dsDNA)
DNA 1: TAATTAAAAAATAAAAAAAAAAAAAATTAAAACAAA
DNA 2: TTTGTTTTAATTTTTTTTTTTTTTATTTTTTAATTA
B20: CACACA_negctrl_site81 (dsDNA)
DNA 1: TTCTGTATAATATAAAAACAAAAATTAAATTAAAAC
DNA 2: GTTTTAATTTAATTTTTGTTTTTATATTATACAGAA
B21: CACACA_negctrl_site1075 (dsDNA)
DNA 1: AATAAAAAAAAAAAAAAAAAAAAAAAGACACTAAAA
DNA 2: TTTTAGTGTCTTTTTTTTTTTTTTTTTTTTTTTATT
B22: CACACA_negctrl_site1769 (dsDNA)
DNA 1: TTTTTACGTAAACAAAATAATTATATAATATTATTT
DNA 2: AAATAATATTATATAATTATTTTGTTTACGTAAAAA
B23: CACACA_negctrl_site970 (dsDNA)
DNA 1: ATATTTTTATGTACTTCAAAAAAAAAGAAAAACAAA
DNA 2: TTTGTTTTTCTTTTTTTTTGAAGTACATAAAAATAT
B24: CACACA_negctrl_site1813 (dsDNA)
DNA 1: TTTTTATTCGATGATCAAATAGGTATATACAAAAAA
DNA 2: TTTTTTGTATATACCTATTTGATCATCGAATAAAAA
B25: CACACA_negctrl_site427 (dsDNA)
DNA 1: TTTATAAATTCTCTTTTTAAAAAATATTTTTATACT
DNA 2: AGTATAAAAATATTTTTTAAAAAGAGAATTTATAAA
B26: CACACA_negctrl_site945 (dsDNA)
DNA 1: ATATAAATAAATTAGTGAAAAAAAAAAAATTTTTTT
DNA 2: AAAAAAATTTTTTTTTTTTCACTAATTTATTTATAT
B27: CACACA_negctrl_site766 (dsDNA)
DNA 1: TTCTTTCTGTTTTATTTATAATAATTTATGATAAAA
DNA 2: TTTTATCATAAATTATTATAAATAAAACAGAAAGAA
B28: CACACA_negctrl_site1666 (dsDNA)
DNA 1: AAAAAAAAAAAAAAATTAAAGTAATGGAAAAAAAAA
DNA 2: TTTTTTTTTCCATTACTTTAATTTTTTTTTTTTTTT
B29: CACACA_negctrl_site80 (dsDNA)
DNA 1: TTTAATAAATAAATAAATAAAATATATTAAAAACCA
DNA 2: TGGTTTTTAATATATTTTATTTATTTATTTATTAAA
B30: CACACA_negctrl_site87 (dsDNA)
DNA 1: TCTTTCTAAATCTTACAAATTACTAAAATATTTATA
DNA 2: TATAAATATTTTAGTAATTTGTAAGATTTAGAAAGA
B31: CACACA_negctrl_site1416 (dsDNA)
DNA 1: TTTTTTGTACCAAAAAAAAAAAAAAGAAAAAAAAAC
DNA 2: GTTTTTTTTTCTTTTTTTTTTTTTTGGTACAAAAAA
B32: CACACA_negctrl_site332 (dsDNA)
DNA 1: TCTTTTAAAAATATAAAAAGGAATATATAAAAATGT
DNA 2: ACATTTTTATATATTCCTTTTTATATTTTTAAAAGA
B33: CACACA_negctrl_site122 (dsDNA)
DNA 1: TCTGGATTGGATTACAAGAAAATAAAATATAAAATA
DNA 2: TATTTTATATTTTATTTTCTTGTAATCCAATCCAGA
B34: CACACA_negctrl_site338 (dsDNA)
DNA 1: TCGTCTCAATAATTATAATAAAAAAATTCCTAAGTC
DNA 2: GACTTAGGAATTTTTTTATTATAATTATTGAGACGA
B35: CACACA_negctrl_site1344 (dsDNA)
DNA 1: TTATGTATTCATTTTTTTTAAGCACCCCAAAATGAT
DNA 2: ATCATTTTGGGGTGCTTAAAAAAAATGAATACATAA
B36: CACACA_negctrl_site454 (dsDNA)
DNA 1: TATTGTAATATTATATATATCTATTATGTATATAAA
DNA 2: TTTATATACATAATAGATATATATAATATTACAATA
B37: CACACA_negctrl_site1724 (dsDNA)
DNA 1: TTTTTCTTTTTTTTTTTAATAATATATAACAAATTT
DNA 2: AAATTTGTTATATATTATTAAAAAAAAAAAGAAAAA
B38: CACACA_negctrl_site466 (dsDNA)
DNA 1: ATAAAAGAATTAAATAATCAAAATGATTATTTTATA
DNA 2: TATAAAATAATCATTTTGATTATTTAATTCTTTTAT
B39: CACACA_negctrl_site1062 (dsDNA)
DNA 1: TTATATGCATCCAAAAAGGAATGTTTTTAGAGAATC
DNA 2: GATTCTCTAAAAACATTCCTTTTTGGATGCATATAA
B40: CACACA_negctrl_site1493 (dsDNA)
DNA 1: TGTTCTTATTTTATAAGCATATAATTAATCATAATG
DNA 2: CATTATGATTAATTATATGCTTATAAAATAAGAACA
B41: CACACA_negctrl_site575 (dsDNA)
DNA 1: TATTTACAAAAAAAATATAAAAAATATAAAATATAT
DNA 2: ATATATTTTATATTTTTTATATTTTTTTTGTAAATA
B42: CACACA_negctrl_site1605 (dsDNA)
DNA 1: GTTTTTTTATAAAATTTTTATATAATTCTTTTATAA
DNA 2: TTATAAAAGAATTATATAAAAATTTTATAAAAAAAC
B43: CACACA_negctrl_site1475 (dsDNA)
DNA 1: AATGATTTTCAATCGAAATGAAACTTAGAAGATATA
DNA 2: TATATCTTCTAAGTTTCATTTCGATTGAAAATCATT
B44: CACACA_negctrl_site648 (dsDNA)
DNA 1: AAAAAGAAAAAATATATTCGTCTATTATAAACAATA
DNA 2: TATTGTTTATAATAGACGAATATATTTTTTCTTTTT

molecular target: T1, AP2-LT D1; experiment: gcPBM; about 25 ug protein; PBS, 1% milk, 0.2 mg/ml BSA, salmon testes DNA, 0.03% Triton X-100; settings: tags: N-terminal GST (pGEX-4T-1), kept; label: surface-attached array probe

Binder	binding signal
B1	8.6 ln median PBM intensity, better of two orientations
B2	8.8 ln median PBM intensity, better of two orientations
B3	8.66 ln median PBM intensity, better of two orientations
B4	8.67 ln median PBM intensity, better of two orientations
B5	8.73 ln median PBM intensity, better of two orientations
B6	8.76 ln median PBM intensity, better of two orientations
B7	8.64 ln median PBM intensity, better of two orientations
B8	8.72 ln median PBM intensity, better of two orientations
B9	8.75 ln median PBM intensity, better of two orientations
B10	8.68 ln median PBM intensity, better of two orientations
B11	8.61 ln median PBM intensity, better of two orientations
B12	8.66 ln median PBM intensity, better of two orientations
B13	8.76 ln median PBM intensity, better of two orientations
B14	8.69 ln median PBM intensity, better of two orientations
B15	8.63 ln median PBM intensity, better of two orientations
B16	8.75 ln median PBM intensity, better of two orientations
B17	8.71 ln median PBM intensity, better of two orientations
B18	8.7 ln median PBM intensity, better of two orientations
B19	8.72 ln median PBM intensity, better of two orientations
B20	8.74 ln median PBM intensity, better of two orientations
B21	8.75 ln median PBM intensity, better of two orientations
B22	8.71 ln median PBM intensity, better of two orientations

Binder	binding signal
B23	8.64 ln median PBM intensity, better of two orientations
B24	8.69 ln median PBM intensity, better of two orientations
B25	8.65 ln median PBM intensity, better of two orientations
B26	8.67 ln median PBM intensity, better of two orientations
B27	8.74 ln median PBM intensity, better of two orientations
B28	8.75 ln median PBM intensity, better of two orientations
B29	8.65 ln median PBM intensity, better of two orientations
B30	8.61 ln median PBM intensity, better of two orientations
B31	8.68 ln median PBM intensity, better of two orientations
B32	8.73 ln median PBM intensity, better of two orientations
B33	8.76 ln median PBM intensity, better of two orientations
B34	8.78 ln median PBM intensity, better of two orientations
B35	8.67 ln median PBM intensity, better of two orientations
B36	8.69 ln median PBM intensity, better of two orientations
B37	8.68 ln median PBM intensity, better of two orientations
B38	8.6 ln median PBM intensity, better of two orientations
B39	8.79 ln median PBM intensity, better of two orientations
B40	8.77 ln median PBM intensity, better of two orientations
B41	8.62 ln median PBM intensity, better of two orientations
B42	8.77 ln median PBM intensity, better of two orientations
B43	8.78 ln median PBM intensity, better of two orientations
B44	8.72 ln median PBM intensity, better of two orientations
